According to patent US6025158A, “Nucleic acids encoding humanized anti-IL-8 monoclonal antibodies” (Genentech, Inc., dated 2000):
Read-outs that look alike come from different tables or passages of the source.

Legend:
[1] = biological target: T1, recombinant human IL-8, (ser-IL-8)72 (human, UniProt P10145); test: inhibition of 125I-IL-8 binding to human neutrophils
[2] = biological target: T1, recombinant human IL-8, (ser-IL-8)72; test: as above; remark: listed apart in the source
[3] = biological target: T1, recombinant human IL-8, (ser-IL-8)72; test: 125I-IL-8 neutrophil competition; reference by Table 4: chimeric F(ab)
[4] = biological target: T1, recombinant human IL-8, (ser-IL-8)72; test: inhibition of 125I-IL-8 binding to human neutrophils; remark: listed apart in the source
[5] = biological target: T2, IL-8 binding to human neutrophils (Homo sapiens, UniProt P10145); test: receptor binding assay: 125I-IL-8 bound to human neutrophils in presence of mAbs; settings: 1:25 molar ratio of IL-8 to mAb
T2 construct: is intended to mean (ser-IL-8)72 unless otherwise specified; ubiquitin (production fusion); made in house
Method: Neutrophils were prepared by using Mono-Poly Resolving Medium (M-PRM) (Flow Lab. Inc., McLean, Va.). Briefly fresh, heparinized human blood was loaded onto M-PRM at a ratio of blood to medium, 3.5:3.0, and centrifuged at 300×g for 30 min at room temperature. Neutrophils enriched at the middle layer were collected and washed once in PBS. […] The receptor binding assay was done as follows. […] The mixture was then incubated with 100 μl of neutrophils (10^7 cells/ml) for 15 min at 37° C. […] The supernatant was removed by aspiration and the radioactivity associated with the pellet was counted in a gamma counter.

IL-8 [6] = biological target: T3, IL-8 (Homo sapiens, UniProt P10145); test: radioimmune precipitation test (RIP), capture of soluble 125I-IL-8; assay type: binding; parameters: is intended to mean (ser-IL-8)72 unless otherwise specified; ubiquitin (production fusion); made in house
Method: One hundred microliters of a predetermined concentration of goat anti-mouse Ig antisera (Pel-Freez, Rogers, Ark.) were added and the mixture was incubated at room temperature for 1 hr. Immune complexes were precipitated by the addition of 0.5 ml of 6% polyethylene glycol (M.W. 8000) kept at 4° C. After centrifugation at 2,000×g for 20 min at 4° C., the supernatant was removed by aspiration and the radioactivity remaining in the pellet was counted in a gamma counter. Percent specific binding was calculated as (precipitated cpm-background cpm)/(total cpm-background cpm).

[7] = test system: human IL-8 mediated elastase release from human neutrophils; test: IL-8 mediated release of elastase by neutrophils (mAb); assay type: cell-based; settings: 1:1 ratio of IL-8 to mAb
Method: One of the antibodies, mAb 5.12.14, was further studied to determine whether it could block the IL-8 mediated release of elastase by neutrophils. Briefly, human neutrophils were resuspended in Hanks balanced salt solution (Gibco, Grand Island, N.Y.) containing 1.0% BSA, Fraction V (Sigma, St. Louis, Mo.), 2 mg/ml alpha-D-glucose (Sigma), 4.2 mM sodium bicarbonate (Sigma) and 0.01 M HEPES, pH 7.1 (JRH Bioscience, Lenexa, Kans.). A stock of cytochalasin B (Sigma) was prepared (5 mg/ml in dimethylsulfoxide (Sigma) and stored at 2-8° C. Cytochalasin B was added to the neutrophil preparation to produce a final concentration of 5 μg/ml, and incubated for 15 min at 37° C. Human IL-8 was incubated with mAb 5.12.14 (20 μl), or a negative control antibody, in 1 ml polypropylene tubes (DBM Scientific, San Fernando, Calif.) for 30 min at 37° C. The final assay concentrations of IL-8 were 50 and 500 nM. The monoclonal antibodies were diluted to produce the following ratios (IL-8:Mab): 1:50, 1:10, 1:2, 1:1, and 1:0.25. Cytochalasin B-treated neutrophils were added (100 μl/tube) and incubated for 2 hours at 25° C. The tubes were centrifuged (210×g, 2-8° C.) for 10 min, and supernatants were transferred to 96 well tissue culture plates (30 μl/well). […] Absorbance was measured at 405 nm (SLT 340 ATTC plate reader, SLT Lab Instruments, Austria).

[8] = isoelectric focusing (IEF); assay type: physicochemical; settings: IEF pH 3-9
Method: The isoelectric focusing (IEF) pattern of each mAb was determined by applying purified antibodies on an IEF polyacrylamide gel (pH 3-9, Pharmacia) using the Fast gel system (Pharmacia, Piscataway, N.J.). The IEF gel was pretreated with pharmalyte containing 1% Triton X100 (Sigma, St. Louis, Mo.) for 10 min before loading the samples. The IEF pattern was visualized by silver staining according to the instructions from the manufacturer. All of the monoclonal antibodies had different IEF patterns, confirming that they originated from different clones.

[9] = test system: IL-8 induced human neutrophil chemotaxis; test: neutrophil chemotaxis induced by IL-8, Boyden chamber method; assay type: cell-based; settings: 1:10 ratio of IL-8 to mAb
Method: The ability of the anti-IL-8 antibodies to block neutrophil chemotaxis induced by IL-8 was tested as follows. Neutrophil chemotaxis induced by IL-8 was determined using a Boyden chamber method (Larsen, et al. Science 243:1464 (1989)). One hundred μl of human neutrophils (10^6 cells/ml) resuspended in RPMI containing 0.1% BSA were placed in the upper chamber and 29 μl of the IL-8 (20 nM) with or without monoclonal antibodies were placed in the lower chamber. Cells were incubated for 1 hr at 37° C. Neutrophils migrated into the lower chamber were stained with Wright's Giemsa stain and counted under the microscope (100×magnification). Approximately 10 different fields per experimental group were examined. Neutralizing monoclonal antibodies 5.12.14 and 4.1.3 blocked almost 70% of the neutrophil chemotactic activity of IL-8 at 1:10 ratio of IL-8 to mAb.

IL-8 [10] = biological target: T3, IL-8; test: competitive binding ELISA (epitope comparison of biotinylated and unlabeled mAbs); parameters: is intended to mean (ser-IL-8)72 unless otherwise specified; ubiquitin (production fusion); made in house; settings: biotinylated mAb to unlabeled mAb 1:100
Method: To assess whether these monoclonal antibodies bound to the same epitopes, a competitive binding ELISA was performed. […] Thus, mAb 4.1.3 and mAb 5.2.3 bind to a different epitope(s) than the epitope recognized by monoclonal antibodies 12.3.9, 4.8 and 5.12.14.

[11] = biological target: T1, recombinant human IL-8, (ser-IL-8)72
[12] = biological target: T1, recombinant human IL-8, (ser-IL-8)72; test: competitive binding RIP, Scatchard
[13] = biological target: IL-8 binding to IL-8 receptors on human neutrophils (Homo sapiens, UniProt P10145); test: inhibition of 125I-IL-8 binding to human neutrophils (competition binding assay); settings: read-out: average IC50, inhibition of 125I-IL-8 binding to human neutrophils; characterization of 6G4V11N35A Fab and F(ab')2 (FIGS. 33, 38)
[14] = test system: neutrophils in bronchoalveolar lavage (BAL) fluid; test: neutrophils in bronchoalveolar lavage (BAL) fluid of animals infected with bacteria; assay type: in vivo; settings: infected with Streptococcus pneumoniae, Escherichia coli, or Pseudomonas aeruginosa; versus isotype control mouse IgG
Excerpt: FIG. 12 is a graph depicting the effect of anti-IL-8 monoclonal antibody treatment on the number of neutrophils in bronchoalveolar lavage (BAL) fluid in animals infected with Streptococcus pneumoniae, Escherichia coli, or Pseudomonas aeruginosa.

[15] = biological target: human monomeric IL-8 (human)
rabbit IL-8 = biological target: T4, rabbit IL-8 (rabbit, UniProt P19874); test: cell-based or functional assay
T4 sequence: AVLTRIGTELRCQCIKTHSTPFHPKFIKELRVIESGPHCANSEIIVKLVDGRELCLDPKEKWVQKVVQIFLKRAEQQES

[16] = biological target: T1, recombinant human IL-8, (ser-IL-8)72; remark: listed apart in the source
[17] = biological target: T1, recombinant human IL-8, (ser-IL-8)72; test: KinExA, equilibrium, human IL-8
Method: The beads were resuspended in assay buffer (0.1% bovine serum albumin in PBS) to a final volume of 30 ml.
The equilibrium constant (Kd) was calculated using the software provided by Sapidyne Instruments Inc.

[18] = biological target: T1, recombinant human IL-8, (ser-IL-8)72; remark: listed apart in the source
[19] = biological target: human monomeric IL-8 (human); remark: listed apart in the source

rhu4D5 F(ab) (Fab) showed an IC50 [1] of over 200000 nM.

B1: humanized 6G425 F(ab)-1 (Fab, V domains shown)
VH: EVQLVESGGGLVQPGGSLRLSCAASGYSFSSHYMHWVRQAPGKGLEWVGYIDPSNGETTYNQKFKGRFTISRDNSKNTLYLQMNSLRAEDTAVYYCAARGDYRYNGDWFFDVWGQGT
VL: DIQMTQSPSSLSASVGDRVTITCRSSQSLVHGIGNTYLHWYQQKPGKAPKLLIYYKVSNRFSGVPSRFSGSGSGTDFTLTISSLQPEDFATYYCSQSTHVPLTFGQGTKVEIKR
In the case of B1, the IC50 [2] is reported as 63 nM, the “fold reduction in binding affinity” value [3] is reported as 5.5 fold and the IC50 [4] is reported as 40 nM.

B2: 5.12.14: murine anti-human IL-8 monoclonal antibody, IgG2a, hybridoma ATCC HB 11553 (antibody, V domains shown)
VL: KASQNVGTNVAWYQQKPGQSPKALIYSSSYRYSGVPDRFTGSGSGTDFTLTISHVQSEDLADYFCQQYNIYPLTFGPGTKLELKRADAAPPTVSIFPPFE
VH: ASGFIFSSYGMSWVRQTPGKSLELVATINNNGDSTYYPDSVKGRFTISRDNAKNTLYLQMSSLKSEDTAMFYCARALISSATWFGYWGQGTLVTVSAAKTTAPSVYP
In the case of B2, the “inhibition of binding of IL-8 to human neutrophils” value [5] is reported as “greater than 85%”, the “% Specific Binding to IL-8” value (IL-8 [6]; 125I-IL-8, RIP) is reported as 98% and the “ability to capture soluble 125I-IL-8” value (IL-8 [6]; RIP) is reported as “captured ^125 I-IL-8 very efficiently”. The “block of IL-8 mediated release of elastase from neutrophils” value [7] was “able to effectively block the release of elastase from neutrophils”, the pI [8] was 6.2-7.4 and the “block of neutrophil chemotactic activity of IL-8” value [9] was about 70%. The “inhibition of binding of biotinylated mAb (epitope)” value (IL-8 [10]) was “significantly inhibited by its homologous mAb but not by mAb 4.1.3”.

B3: monoclonal antibody 5.12.14 (antibody, V domains shown)
VH: EVQLVESGGGLVPPGGSLKLSCAASGFIFSSYGMSWVRQTPGKSLELVATINNNGDSTYYPDSVKGRFTISRDNAKNTLYLQMSSLKSEDTAMFYCARALISSATWFGYWGQGTLVTVSA
VL: DIVMTQSQKFMSTSVGDRVSVTCKASQNVGTNVAWYQQKPGQSPKALIYSSSYRYSGVPDRFTGSGSGTDFTLTISHVQSEDLADYFCQQYNIYPLTFGPGTKLELKR
With B3 the neutrophil chemotaxis induced by IL-8 (Boyden chamber) [11] was 70% and the Kd [12] was 0.3 nM.

B4: 6G4.2.5: murine anti-rabbit IL-8 monoclonal antibody, IgG2a, hybridoma ATCC HB 11722 (antibody, V domains shown)
VL: DIVMTQTPLSLPVSLGDQASISCRSSQSLVHGIGNTYLHWYLQKPGQSPKLLIYYKVSNRFSGVPDRFSDSGSGTDFTLRISRVEAEDLGLYFCSQSTHVPLTFGAGTKLELKR
VH: EIQLQQSGPELMKPGASVKISCKASGYSFSSHYMHWVKQSHGKSLEWIGYIDPSNGETTYNQKFKGKATLTVDTSSSTANVHLSSLTSDDSAVYFCAARGDYRYNGDWFFDVWGAGT
With B4 the IC50 [13] was 5 nM and the “number of neutrophils in BAL fluid” value [14] was “significantly reduced the number of neutrophils present in the BAL fluid”.

B5: 6G4V11N35A Fab (Fab, V domains shown)
VH: EVQLVQSGGGLVQPGGSLRLSCAASGYSFSSHYMHWVRQAPGKGLEWVGYIDPSNGETTYNQKFKGRFTLSRDNSKNTAYLQMNSLRAEDTAVYYCARGDYRYNGDWFFDVWGQGTLVTVSS
VL: DIQMTQSPSSLSASVGDRVTITCRSSQSLVHGIGATYLHWYQQKPGKAPKLLIYKVSNRFSGVPSRFSGSGSGTDFTLTISSLQPEDFATYYCSQSTHVPLTFGQGTKVEIKR
With B5 the IC50, IL-8 mediated neutrophil chemotaxis [15] was 1 nM, the “IC50, IL-8 mediated neutrophil chemotaxis” value (rabbit IL-8) was 5 nM and the IC50, IL-8 mediated PMN chemotaxis [16] was 0.8 nM. The Kd [17] was about 0.114 nM and the IC50, human IL-8 mediated neutrophil chemotaxis [18] was 2.7 nM.

B6: 6G4V11N35A F(ab')2 leucine zipper (antibody, V domains shown)
VH: EVQLVQSGGGLVQPGGSLRLSCAASGYSFSSHYMHWVRQAPGKGLEWVGYIDPSNGETTYNQKFKGRFTLSRDNSKNTAYLQMNSLRAEDTAVYYCARGDYRYNGDWFFDVWGQGTLVTVSS
VL: DIQMTQSPSSLSASVGDRVTITCRSSQSLVHGIGATYLHWYQQKPGKAPKLLIYKVSNRFSGVPSRFSGSGSGTDFTLTISSLQPEDFATYYCSQSTHVPLTFGQGTKVEIKR
In the case of B6, the “IC50, IL-8 mediated neutrophil chemotaxis” value (rabbit IL-8) is reported as 4 nM, the IC50, human IL-8 mediated neutrophil chemotaxis [18] is reported as 1.5 nM and the IC50, IL-8 mediated neutrophil chemotaxis [19] is reported as 1 nM.
